Measurements from publication PMC3459974.

Biological target: thioredoxin fused-human artemin protein (Trx-ARTN) (human) (UniProt Q5T4W7)
Assay: SEC; Superdex-200 10/300 column; dimeric Trx-ARTN fractions eluted from the CM-sepharose column, from both refolding methods; calibration with protein standards

thioredoxin fused-human artemin protein (Trx-ARTN) (from UniProt Q5T4W7 40-220) (natural protein)
stoichiometry N: 2
